B1: CPEB3 Ribozyme (parent)
chain: GGGGGCCACAGCAGAAGCGUUCACGUCGCGGCCCCUGUCAGAUUCUGGUGAAUCUGCGAAUUCUGCUGU

In the data set the parent is B1. In words: self-cleavage, relative activity (ratio to wild type); higher = more cleavage; co-transcriptional.
For G2A A52C, the self-cleavage turned out to be 0.167. Next, G1U A23C: 0.171.

In the case of G1U A23G, the self-cleavage was 0.141. For G1C U55G, the self-cleavage stood at 0.135. For G2U A59G, the self-cleavage amounted to 0.0714. The result for G3A G37C reads 0.126. On to G2A U44G, for which the self-cleavage was determined as 0.0958. G2A U44A: the self-cleavage worked out at 0.111. On to G2A C32A, for which the self-cleavage was determined as 0.0579. Turning to G2A C32G, the self-cleavage came to 0.0194. With G2C C63A, the self-cleavage was determined as 0.0459. As for G2C C63U, the self-cleavage was found to be 0.0396. The result for G3A G58C reads 0.338; that for G3A G58A, 0.315; that for G2A G5U, 0.0444.

As to G2C A52G, the self-cleavage amounted to 0.0291. As to G2C A52U, the self-cleavage is 0.0375. Turning to G2U A16C, the self-cleavage was found to be 0.0327.

In the case of G2U A16G, the self-cleavage worked out at 0.0825.

Regarding G2C C35U, the self-cleavage was 0.0408. Next, G1U C66U: 0.127; G3A U20G: 0.11. The result for G3A U20C reads 0.0517; that for G1U A40G, 0.0819; that for G1U A40U, 0.0879.

On to G2A C39G, for which the self-cleavage came to 0.0948. The result for G1U A13G reads 0.0953. Turning to G1U A13C, the self-cleavage came out at 0.0972. Next, G2C C9U: 0.0977; G1U C39G: 0.103; G3A C9U: 0.886. The result for G3A C27G reads 0.056; that for G3A C27A, 0.153. Next, G3A C27U: 0.0889; G2U C66U: 0.096; G2U C66A: 0.073. With G1U C7U, the self-cleavage was determined as 0.0859. Next, G1U C24U: 0.0825; G1U C24A: 0.0939; G2U U61A: 0.0837. Next, G2U U61G: 0.112; G3A A13C: 0.298.

As to G2C A13C, the self-cleavage was determined as 0.0327. The result for G2C G41A reads 0.0552; that for G3A U64A, 0.458. Next, G3A U64C: 0.436; G3A U64G: 0.521.

As for G2C C27U, the self-cleavage was determined as 0.0172. Next, G1U U46C: 0.0797; G2A G19C: 0.0616; G3A G48C: 0.698.

Consider G3A G41C, for which the self-cleavage worked out at 0.198. Next, G2U U20A: 0.0261; G1U G58A: 0.0859.

Take G2U G30C: the self-cleavage amounted to 0.0703.

Regarding G2U G30A, the self-cleavage is 0.0872. Next, G3C A59U: 0.0529; G3A C6G: 0.0163. The result for G3A C6U reads 0.245; that for G3A C6A, 0.0773.

Turning to G2C A23U, the self-cleavage is 0.1. Next, G2C A23G: 0.0311; G2U U69C: 0.208. Regarding G2U U69A, the self-cleavage came to 0.124. Regarding G2U U64G, the self-cleavage amounted to 0.0605. Next, G2U U64C: 0.0967; G2C G25A: 0.0488.

In the case of G1U A60G, the self-cleavage stood at 0.128.

Turning to G1U A60U, the self-cleavage turned out to be 0.033.

Consider G3A G47A, for which the self-cleavage worked out at 0.65.

Consider G3A U38A, for which the self-cleavage worked out at 0.514. Next, G3A U38C: 0.419; G2U C29U: 0.0589. Next, G2U C35G: 0.109; G2U C35U: 0.0749.

For the variant G2A G25A, the self-cleavage stood at 0.0813. With G1U G14U, the self-cleavage was determined as 0.0869.

Take G3A C35A: the self-cleavage worked out at 0.102.

For the variant G2A G4C, the self-cleavage is 0.0317.

Consider G2A G4U, for which the self-cleavage turned out to be 0.0384.

With G2A G4A, the self-cleavage came to 0.0501.

With G2U G28U, the self-cleavage stood at 0.0242. For the variant G3A C22U, the self-cleavage was 0.0997.

Consider G3C A10U, for which the self-cleavage worked out at 0.334. For G2C U55A, the self-cleavage was determined as 0.0429. Next, G3C C9U: 0.441; G1U C33U: 0.214; G1U C33G: 0.102. G2A A40G: the self-cleavage is 0.105. Regarding G2A A40C, the self-cleavage was 0.0341. Consider G1U G28U, for which the self-cleavage turned out to be 0.0723.

As to G2C C12A, the self-cleavage stood at 0.0486.

Turning to G3C A51U, the self-cleavage is 0.115. In the case of G3A U61G, the self-cleavage was 0.278.

Take G1C U62C: the self-cleavage was 0.264. Next, G2U C32A: 0.107.

For the variant G2A A16G, the self-cleavage was determined as 0.179. The result for G2A A16C reads 0.0551; that for G2U A60G, 0.0636. The result for G3A A40C reads 0.166; that for G3A A40U, 0.379.

G3C C24A: the self-cleavage is 0.0571. On to G1U C45A, for which the self-cleavage amounted to 0.11. As for G2U C9U, the self-cleavage was 0.176. As for G2U G11C, the self-cleavage stood at 0.0923. For the variant G2A U69C, the self-cleavage came to 0.457. Consider G2U G65A, for which the self-cleavage was 0.0788.

G2C U62C: the self-cleavage amounted to 0.011. Take G2A U49A: the self-cleavage turned out to be 0.179. The result for G2A G41C reads 0.0676; that for G2A C54G, 0.0929; that for G1U G17C, 0.0433. Next, G1U G17A: 0.0548; G3A A23U: 0.79. In the case of G1U C27U, the self-cleavage turned out to be 0.0539. Next, G2A G68U: 0.335; G2C G65A: 0.0284; G2C G65U: 0.102. Regarding G3A A59C, the self-cleavage was found to be 0.199.

In the case of G2A A10U, the self-cleavage came out at 0.336. Next, G1U G56A: 0.111; G2C G68U: 0.0864.

With G1C U64G, the self-cleavage is 0.204. Next, G2A A15G: 0.166; G1C U67G: 0.312. Take G2C U36G: the self-cleavage came to 0.052. Consider G2C U36A, for which the self-cleavage turned out to be 0.0481.

G3C C12G: the self-cleavage is 0.0121. The result for G2C G14U reads 0.0531; that for G2U G3U, 0.0485. The result for G2A C24A reads 0.0565; that for G2A C24U, 0.0737. The result for G3A G14A reads 0.329; that for G3A G14U, 0.29; that for G1U U36A, 0.0485.

Turning to G2U A10U, the self-cleavage stood at 0.138. The result for G2U A10G reads 0.116.

As to G2U G41U, the self-cleavage stood at 0.0665. Next, G2U G41C: 0.0505; G2A G47U: 0.276.

G3A C18A: the self-cleavage amounted to 0.066.

On to G3A C18G, for which the self-cleavage came out at 0.0813. Next, G1U G11C: 0.118; G1U G11U: 0.129. In the case of G2A A13U, the self-cleavage came out at 0.121.

For G1U A8G, the self-cleavage came out at 0.0916. With G2C C66G, the self-cleavage stood at 0.0186. With G2U G17C, the self-cleavage was determined as 0.0396. In the case of G2U G17U, the self-cleavage worked out at 0.039. Turning to G2C A42C, the self-cleavage turned out to be 0.0895. As to G2C A42U, the self-cleavage was 0.0317. Next, G2A C33G: 0.0627. Regarding G2A A60U, the self-cleavage was found to be 0.0695. On to G2A A60G, for which the self-cleavage amounted to 0.0573. Next, G2A C45U: 0.117; G2A C45A: 0.132. The result for G2U G4A reads 0.0959; that for G2C G30C, 0.072; that for G1U C12A, 0.0761.

Turning to G2A C63A, the self-cleavage amounted to 0.104.

Turning to G2A A8C, the self-cleavage was 0.194. The result for G2U C54A reads 0.0587. As for G3C A15U, the self-cleavage turned out to be 0.0699. Regarding G1U U20G, the self-cleavage was 0.0369. Next, G1U U20C: 0.068; G3A A8C: 0.721; G3A A8G: 0.527.

These data come from the RNAGym collection of RNA variant scans (doi:10.7554/elife.80360).
